From patent publication US20180011102
Numbering of substitutions follows the chain as printed. In names and notes the source's numbering stands.

How the values were obtained:
[1] = target: purified Beclin-1 S30A mutant, Q14457
[2] = target: T1, purified CDC45 S386A, O75419
T1 chain: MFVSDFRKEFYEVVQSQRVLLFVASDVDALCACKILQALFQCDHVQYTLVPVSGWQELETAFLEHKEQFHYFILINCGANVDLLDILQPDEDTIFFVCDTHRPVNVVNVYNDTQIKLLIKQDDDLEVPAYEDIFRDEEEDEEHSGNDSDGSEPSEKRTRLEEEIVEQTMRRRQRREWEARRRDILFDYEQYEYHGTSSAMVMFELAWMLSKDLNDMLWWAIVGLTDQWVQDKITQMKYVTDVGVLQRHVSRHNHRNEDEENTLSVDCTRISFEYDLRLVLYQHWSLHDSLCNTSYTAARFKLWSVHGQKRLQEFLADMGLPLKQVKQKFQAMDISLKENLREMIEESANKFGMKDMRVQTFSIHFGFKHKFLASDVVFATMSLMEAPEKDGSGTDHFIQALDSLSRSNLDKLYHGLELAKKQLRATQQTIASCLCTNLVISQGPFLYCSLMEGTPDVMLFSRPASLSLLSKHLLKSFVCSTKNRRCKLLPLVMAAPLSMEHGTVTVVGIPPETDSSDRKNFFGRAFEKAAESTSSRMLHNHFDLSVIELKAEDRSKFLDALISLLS

[3] = target: purified wild-type Beclin-1, Q14457
[4] = target: purified PDHK1 T338A (pE-SUMO PDHK1 T338A), Q15118
[5] = target: purified PDHK1 S337A, Q15118
[6] = target: SUMO-PDHK1 (wild type), bacterially purified, Q15118
[7] = target: T2, purified wild-type CDC45, O75419
T2 chain: T1 chain with A386S

Sequence of SUMO-PDHK1 (wild type), bacterially purified, Q15118 (Q15118 whole entry, looked up): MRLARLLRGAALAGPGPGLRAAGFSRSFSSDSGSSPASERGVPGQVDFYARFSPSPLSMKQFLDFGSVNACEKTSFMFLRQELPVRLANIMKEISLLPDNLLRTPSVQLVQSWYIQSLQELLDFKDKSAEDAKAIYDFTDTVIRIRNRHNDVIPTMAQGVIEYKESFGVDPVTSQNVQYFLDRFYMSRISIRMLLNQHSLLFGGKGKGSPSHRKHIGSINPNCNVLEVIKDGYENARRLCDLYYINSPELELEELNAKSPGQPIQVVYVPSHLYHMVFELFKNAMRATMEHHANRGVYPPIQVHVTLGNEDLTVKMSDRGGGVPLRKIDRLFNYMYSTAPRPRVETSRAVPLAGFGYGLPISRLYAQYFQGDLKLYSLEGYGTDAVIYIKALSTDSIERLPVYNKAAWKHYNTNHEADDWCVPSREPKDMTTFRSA
Sequence of purified Beclin-1 S30A mutant, Q14457 (Q14457 whole entry S30A): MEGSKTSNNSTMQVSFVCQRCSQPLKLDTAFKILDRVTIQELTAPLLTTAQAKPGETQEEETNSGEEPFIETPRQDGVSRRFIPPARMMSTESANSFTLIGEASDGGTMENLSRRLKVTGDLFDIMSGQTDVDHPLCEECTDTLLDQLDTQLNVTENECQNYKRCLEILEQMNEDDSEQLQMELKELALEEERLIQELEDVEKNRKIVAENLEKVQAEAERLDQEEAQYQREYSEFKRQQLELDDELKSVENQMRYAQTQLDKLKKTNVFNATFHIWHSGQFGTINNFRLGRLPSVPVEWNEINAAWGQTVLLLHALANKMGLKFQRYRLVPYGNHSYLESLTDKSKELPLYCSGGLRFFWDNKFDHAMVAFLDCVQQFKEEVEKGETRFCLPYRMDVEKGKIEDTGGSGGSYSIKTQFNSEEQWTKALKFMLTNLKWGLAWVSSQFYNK
Sequence of purified PDHK1 T338A (pE-SUMO PDHK1 T338A), Q15118 (Q15118 whole entry T338A): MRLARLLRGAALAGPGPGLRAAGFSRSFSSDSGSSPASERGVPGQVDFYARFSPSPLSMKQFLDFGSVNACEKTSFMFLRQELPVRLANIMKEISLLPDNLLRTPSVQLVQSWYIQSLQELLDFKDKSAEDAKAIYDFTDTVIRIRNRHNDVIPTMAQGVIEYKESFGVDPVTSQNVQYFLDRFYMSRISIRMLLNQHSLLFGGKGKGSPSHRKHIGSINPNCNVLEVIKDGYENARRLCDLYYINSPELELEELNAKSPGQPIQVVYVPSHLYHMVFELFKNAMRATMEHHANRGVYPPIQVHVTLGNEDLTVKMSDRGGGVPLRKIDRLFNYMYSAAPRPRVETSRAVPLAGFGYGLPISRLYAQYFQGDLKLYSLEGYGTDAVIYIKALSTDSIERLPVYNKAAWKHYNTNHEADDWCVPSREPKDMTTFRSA
Sequence of purified wild-type Beclin-1, Q14457 (Q14457 whole entry, looked up): as the sequence (Q14457 whole entry S30A) above, with A30S counted along it
Sequence of purified PDHK1 S337A, Q15118 (Q15118 whole entry S337A): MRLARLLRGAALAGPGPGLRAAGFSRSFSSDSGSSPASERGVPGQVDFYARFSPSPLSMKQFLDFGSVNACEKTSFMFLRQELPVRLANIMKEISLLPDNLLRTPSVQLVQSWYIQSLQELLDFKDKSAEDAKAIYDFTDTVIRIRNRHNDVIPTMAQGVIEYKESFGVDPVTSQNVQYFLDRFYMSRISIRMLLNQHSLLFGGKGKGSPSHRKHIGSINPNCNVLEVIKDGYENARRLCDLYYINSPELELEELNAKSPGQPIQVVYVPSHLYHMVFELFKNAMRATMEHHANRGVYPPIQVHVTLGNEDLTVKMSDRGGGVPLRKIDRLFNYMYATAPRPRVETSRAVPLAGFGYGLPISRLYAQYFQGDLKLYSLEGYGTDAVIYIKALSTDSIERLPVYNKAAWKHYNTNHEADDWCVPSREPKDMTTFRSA

B1: His-PGK1 (wild type), bacterially purified, not phosphorylated (protein)
chain: MSLSNKLTLDKLDVKGKRVVMRVDFNVPMKNNQITNNQRIKAAVPSIKFCLDNGAKSVVLMSHLGRPDGVPMPDKYSLEPVAVELKSLLGKDVLFLKDCVGPEVEKACANPAAGSVILLENLRFHVEEEGKGKDASGNKVKAEPAKIEAFRASLSKLGDVYVNDAFGTAHRAHSSMVGVNLPQKAGGFLMKKELNYFAKALESPERPFLAILGGAKVADKIQLINNMLDKVNEMIIGGGMAFTFLKVLNNMEIGTSLFDEEGAKIVKDLMSKAEKNGVKITLPVDFVTADKFDENAKTGQATVASGIPAGWMGLDCGPESSKKYAEAVTRAKQIVWNGPVGVFEWEAFARGTKALMDEVVKATSRGCITIIGGGDTATCCAKWNTEDKVSHVSTGGGASLELLEGKVLPGVDALSNI
[1]
  in vitro phosphorylation with [γ32P]-ATP, autoradiography and Western blot: Beclin-1 S30A mutant was largely resistant to phosphorylation by PGK1
[2]
  in vitro phosphorylation with [γ32P]-ATP, autoradiography and Western blot: Purified wild-type PGK1 but not PGK1 kinase-dead (KD) mutant phosphorylated purified wild-type CDC45, but not CDC45 S386A
[3]
  in vitro phosphorylation with [γ32P]-ATP, autoradiography and Western blot: Purified PGK1 phosphorylated purified wild-type Beclin-1
[4]
  in vitro phosphorylation with [γ32P]-ATP, autoradiography and anti-phospho-PDHK1 T338 antibody: WT PGK1, but not a PGK1 T378P kinase-dead mutant, was able to phosphorylate WT PDHK1, but not PDHK1 T338A
[5]
  in vitro phosphorylation with [γ32P]ATP, autoradiography: mutation of the adjacent PDHK1 S337A had no effect on PGK1-mediated PDHK1 phosphorylation
[6]
  in vitro phosphorylation with [γ32P]-ATP, autoradiography and anti-phospho-PDHK1 T338 antibody: WT PGK1, but not a PGK1 T378P kinase-dead mutant, was able to phosphorylate WT PDHK1, but not PDHK1 T338A
[7]
  in vitro phosphorylation with [γ32P]-ATP, autoradiography and Western blot: Purified wild-type PGK1 but not PGK1 kinase-dead (KD) mutant phosphorylated purified wild-type CDC45, but not CDC45 S386A

B2: purified PGK1 T378P kinase-dead mutant (protein)
chain: B1 chain with T378P
[6]
  in vitro phosphorylation with [γ32P]-ATP, autoradiography and anti-phospho-PDHK1 T338 antibody: WT PGK1, but not a PGK1 T378P kinase-dead mutant, was able to phosphorylate WT PDHK1, but not PDHK1 T338A
[7]
  in vitro phosphorylation with [γ32P]-ATP, autoradiography and Western blot: Purified wild-type PGK1 but not PGK1 kinase-dead (KD) mutant phosphorylated purified wild-type CDC45, but not CDC45 S386A
